This note sets out measurements from patent US20260226503A1.

For assay [1], the target named is AAV2 capsid (adeno-associated virus serotype 2) (UniProt P03135). Briefly: bind-and-elute chromatography, pure AAV2; bound at pH 7.0, eluted with 0.2 M MgCl2 in citrate pH 2.2; ELISA. (ELISA stands for enzyme-linked immunosorbent assay.)
The target in assay [2] is AAV9 capsid (adeno-associated virus serotype 9). Briefly: bind-and-elute chromatography, pure AAV9; bound at pH 7.0, eluted with 0.2 M MgCl2 in citrate pH 2.2; ELISA.
Assay [3] shares this target. The experiment in a line: bind-and-elute chromatography, pure AAV9; bound at pH 7.0, eluted with PBS pH 2.0; ELISA.
For assay [4], the target named is AAV2 capsid (adeno-associated virus serotype 2) (UniProt P03135). The experiment in a line: bind-and-elute chromatography, pure AAV2; bound at pH 7.0, eluted with PBS pH 2.0; ELISA.

Sequence of AAV2 capsid (adeno-associated virus serotype 2) (P03135 whole entry, chain 1 of 3): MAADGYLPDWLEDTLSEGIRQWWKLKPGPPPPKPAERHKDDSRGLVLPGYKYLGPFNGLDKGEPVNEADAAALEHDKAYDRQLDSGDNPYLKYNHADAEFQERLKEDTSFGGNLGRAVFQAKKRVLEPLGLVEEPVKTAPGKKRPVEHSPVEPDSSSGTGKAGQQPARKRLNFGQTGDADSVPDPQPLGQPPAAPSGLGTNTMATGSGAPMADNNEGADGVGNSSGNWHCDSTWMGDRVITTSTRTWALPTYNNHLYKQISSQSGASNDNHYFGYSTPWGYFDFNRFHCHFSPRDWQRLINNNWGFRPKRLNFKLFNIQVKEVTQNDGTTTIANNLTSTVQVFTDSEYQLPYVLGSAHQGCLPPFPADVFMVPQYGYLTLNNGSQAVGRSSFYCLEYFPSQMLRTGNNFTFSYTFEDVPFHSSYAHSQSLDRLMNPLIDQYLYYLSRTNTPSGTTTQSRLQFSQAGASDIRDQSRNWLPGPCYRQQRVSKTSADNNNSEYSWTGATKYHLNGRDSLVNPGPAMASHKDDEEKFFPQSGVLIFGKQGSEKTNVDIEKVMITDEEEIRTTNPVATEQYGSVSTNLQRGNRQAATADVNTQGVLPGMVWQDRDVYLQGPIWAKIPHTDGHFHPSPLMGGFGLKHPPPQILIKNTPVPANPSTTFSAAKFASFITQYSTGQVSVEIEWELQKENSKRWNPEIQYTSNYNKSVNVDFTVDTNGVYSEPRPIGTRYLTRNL
Sequence of AAV2 capsid (adeno-associated virus serotype 2) (P03135 139-735, tags left off, chain 2 of 3): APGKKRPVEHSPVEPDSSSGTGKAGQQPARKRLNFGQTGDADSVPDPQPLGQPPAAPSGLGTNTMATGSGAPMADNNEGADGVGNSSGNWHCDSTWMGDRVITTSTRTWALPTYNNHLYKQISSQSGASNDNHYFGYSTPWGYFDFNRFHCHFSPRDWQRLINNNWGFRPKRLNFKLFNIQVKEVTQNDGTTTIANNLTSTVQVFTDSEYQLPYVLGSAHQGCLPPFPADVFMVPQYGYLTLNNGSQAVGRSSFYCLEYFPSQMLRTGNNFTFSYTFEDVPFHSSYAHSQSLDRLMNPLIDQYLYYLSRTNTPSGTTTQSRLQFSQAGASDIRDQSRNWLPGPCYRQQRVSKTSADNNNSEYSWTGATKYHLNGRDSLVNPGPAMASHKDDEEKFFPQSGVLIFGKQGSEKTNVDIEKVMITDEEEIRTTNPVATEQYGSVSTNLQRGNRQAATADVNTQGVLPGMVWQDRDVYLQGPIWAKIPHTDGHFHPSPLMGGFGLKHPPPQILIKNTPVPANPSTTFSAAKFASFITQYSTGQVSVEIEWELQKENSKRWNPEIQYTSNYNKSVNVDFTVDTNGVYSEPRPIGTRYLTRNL
Sequence of AAV2 capsid (adeno-associated virus serotype 2) (P03135 203-735, chain 3 of 3): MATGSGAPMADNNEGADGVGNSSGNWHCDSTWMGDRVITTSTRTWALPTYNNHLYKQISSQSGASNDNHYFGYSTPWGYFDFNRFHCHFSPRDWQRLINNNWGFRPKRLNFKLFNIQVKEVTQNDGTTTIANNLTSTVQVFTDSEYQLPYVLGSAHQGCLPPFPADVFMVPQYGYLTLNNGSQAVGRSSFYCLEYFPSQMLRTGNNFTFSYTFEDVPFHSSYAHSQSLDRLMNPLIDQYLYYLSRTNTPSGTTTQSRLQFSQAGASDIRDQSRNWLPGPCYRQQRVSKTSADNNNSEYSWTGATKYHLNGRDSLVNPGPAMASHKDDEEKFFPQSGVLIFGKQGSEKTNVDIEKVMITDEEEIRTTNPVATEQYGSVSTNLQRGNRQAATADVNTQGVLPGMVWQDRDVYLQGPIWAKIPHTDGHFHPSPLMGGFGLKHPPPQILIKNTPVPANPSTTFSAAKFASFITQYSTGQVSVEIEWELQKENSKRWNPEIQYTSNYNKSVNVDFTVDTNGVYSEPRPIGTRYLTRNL

For the substance “POROS CaptureSelect AAVX Affinity resin (VHH)”, the yield (AAV titer in elution fraction vs. load) in assay [1] is 63.4%; in assay [2], 25.6%.

Consider AVB Sepharose HP resin (VHH), for which the yield (AAV titer in elution fraction vs. load) in assay [3] was 10.6%; in assay [4], 45.8%.
